We go through two molecules from publication PMC3923779, “Iron Acquisition in Bacillus cereus: The Roles of IlsA and Bacillibactin in Exogenous Ferritin Iron Mobilization” (PLoS Pathogens, 2014).

B1: IlsA (Iron-regulated leucine rich surface protein type A), recombinant, without signal peptide (natural protein, Bacillus cereus strain ATCC14579, UniProt Q81G77 29-760, looked up)
chain: ALKVEANQSVAAASDRTYDTEIKIYKDQKDEPSMVSQYIKDPKVTIAAGKKIVTVTMQDSDYFQYLRIEDKNQPGVFHDVKVLSEDKRKNGTKVVQFEIGEFEKKHNMQMHILIPAIGYDHKYQVQFEIKDPTVGNKETEKPDDNSNSGNTETDNPVDNQNMITDNKLRELVNKKVFNRKDLNTPITKEDLLQVKDLFLNTNEILDYSALKYMPNLKSLTVANAKIKDPSFFANLKQLNHLALRGNEFADVTPLVKMDNLESLDLSNNKITNVAPLTEMKNVKSLFLSGNQIEDVTALAKMEQLDYLNLANNKITNVAPLSNLKNVTYLTLAGNQIEDIKPLYTLPLKDLVLTRNKVKDLSGIDQLNQLQELWIGKNEITDVTPLSKMTQLKILNLPNNELKDITPLSSLVNLQKLDLEANYISDLSPVSNLKKLVFLSFVANEIRDVRPVIELSKTAYINVQNQKVFLEETEVNKEVKVPIYEKDGEISTKIRLKSDNGTYSNGVVKWSTPGEKVYEFGVKDPFADTGIFFTGSVIQNVVESKDGNTSKEDEKTEVVEFKDVPKGHWSEEAINYLAKEKLFIGYGNGEFGFGDNITRGQVALLIQRYLKLENNLEQKTAFTDTKGNMYETAIDAVVQAGIMTGYGNGMFRPDGVLTRYEMSVVLQRVFQLKENENSAENFKDVPNGHWAKGYVKALVDNKISKGDGEGNFLGDNFVTREQYAQFLYNAIKK
notes: IlsA of Bacillus cereus strain ATCC14579, NCBI gene number Bc1331; Holo form (hemin added until saturation of 80%) in the ITC; also called Holo-IlsA; full-length IlsA; source: E. coli C600 ΔhemA, purified (Bulk GST Purification Module, eluted with PreScission Protease); produced in apo-form, hemin added to reconstitute the holo-protein
B2: recombinant mouse H-chain ferritin (natural protein, UniProt P09528 1-182, looked up)
chain: MTTASPSQVRQNYHQDAEAAINRQINLELYASYVYLSMSCYFDRDDVALKNFAKYFLHQSHEEREHAEKLMKLQNQRGGRIFLQDIKKPDRDDWESGLNAMECALHLEKSVNQSLLELHKLATDKNDPHLCDFIETYYLSEQVKSIKELGDHVTNLRKMGAPEAGMAEYLFDKHTLGHGDES
notes: mouse ferritin H-chain, recombinant homopolymer; also called MoHF; recombinant mouse homopolymer H-chain; copies: 24

Common to all, as to test: ITC; 16 injections of 3 µl of 229 µM holo-IlsA into the cell with 1 µM ferritin; 25°C; 50 mM Tris-HCl pH 7, 150 mM NaCl, 1 mM EDTA, 1 mM DTT; model of one set of independent binding sites; apparent values
Common to all, as to conditions: both partners purified

Assay [1] deals with T1, recombinant human H-chain ferritin (human, UniProt P02794 1-183).
T1 construct: human ferritin H-chain, recombinant homopolymer of 24 H-subunits; loaded with 500 Fe/shell in the iron release assay; also called HuHF; holoHuHF; copies: 24

Assay [2] concerns the target T2, recombinant human L-chain ferritin (human, UniProt P02792 1-175).
T2 construct: human ferritin L-chain, recombinant homopolymer of 24 L-subunits; also called HuLF; recombinant human homopolymer L-chain; copies: 24

Assay [3] addresses T3, recombinant human heteropolymer H/L ferritin (human, UniProt P02794 1-183; P02792 1-175).
T3 construct: human ferritin H-chain in the recombinant heteropolymer; human ferritin L-chain in the recombinant heteropolymer; The results print ∼20 H-chains and 4 L-chains; also called HuH/LF; recombinant heteropolymer ferritin; copies: 20 + 4

Assay [4] concerns the target B2.
For assay [5], the target named is B1.

T2 sequence (P02792 whole entry): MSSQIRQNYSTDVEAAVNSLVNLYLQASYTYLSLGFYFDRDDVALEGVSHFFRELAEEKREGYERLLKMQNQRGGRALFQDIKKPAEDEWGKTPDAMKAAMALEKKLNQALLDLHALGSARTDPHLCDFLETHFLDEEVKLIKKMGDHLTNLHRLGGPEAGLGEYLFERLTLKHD
T1 sequence (P02794 whole entry): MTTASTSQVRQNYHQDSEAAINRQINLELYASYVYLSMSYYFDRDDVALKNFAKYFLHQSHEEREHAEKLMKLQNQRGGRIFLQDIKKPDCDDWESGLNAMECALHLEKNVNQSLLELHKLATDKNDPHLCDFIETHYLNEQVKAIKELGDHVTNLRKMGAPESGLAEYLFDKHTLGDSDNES
T3 sequence (P02794 whole entry, chain 1 of 2): as the sequence (P02794 whole entry) above
T3 sequence (P02792 whole entry, chain 2 of 2): as the sequence (P02792 whole entry) above

A word on the stoichiometry N: it is a count of units in the complex or per binding partner. For the molecule B1, the dH in assay [1] was -0.982 kcal/mol; in assay [2], -2.08 kcal/mol; in assay [3], -2.08 kcal/mol; in assay [4], -0.801 kcal/mol. Moreover, the “stoichiometry N” value was determined as 25.2 IlsA per ferritin shell in assay [1], 23.9 IlsA per ferritin shell in assay [2], 23.8 IlsA per ferritin shell in assay [3] and 24.9 IlsA per ferritin shell in assay [4].
B2: the Ka in assay [5] was found to be 2.07e+06 M⁻¹.
